Measured values from paper PMC11357852 (Molecular Therapy. Methods & Clinical Development, 2024).

Biological target: T1, recombinant mouse HEXB (beta-subunit of beta-hexosaminidase) (mouse, UniProt P20060 32-536)
T1 sequence (looked up): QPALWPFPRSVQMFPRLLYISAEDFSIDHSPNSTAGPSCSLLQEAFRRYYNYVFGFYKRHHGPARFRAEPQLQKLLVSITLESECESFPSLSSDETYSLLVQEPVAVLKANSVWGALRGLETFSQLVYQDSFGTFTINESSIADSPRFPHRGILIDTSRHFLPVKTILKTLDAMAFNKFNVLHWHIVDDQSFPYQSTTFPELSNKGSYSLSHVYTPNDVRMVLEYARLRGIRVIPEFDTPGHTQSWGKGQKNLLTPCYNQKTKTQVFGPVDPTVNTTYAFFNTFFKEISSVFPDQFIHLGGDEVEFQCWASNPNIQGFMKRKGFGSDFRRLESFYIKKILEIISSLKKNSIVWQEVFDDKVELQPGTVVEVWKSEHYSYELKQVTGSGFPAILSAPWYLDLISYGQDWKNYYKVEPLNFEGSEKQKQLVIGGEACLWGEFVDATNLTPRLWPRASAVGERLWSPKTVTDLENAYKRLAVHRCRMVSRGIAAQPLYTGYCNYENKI
Assay: binding to a coated plate, bound protein read by HexA enzymatic activity

B1: mouse-Transferrin-G-CSF-HEXA (mTr-G-CSF-HEXA) (other)
chain: HAIYPRHGSVPLVTVSALPPSLPLPRSFLLKSLEQVRKIQASGSVLLEQLCATYKLCHPEELVLLGHSLGIPKASLSGCSSQALQQTQCLSQLHSGLCLYQGLLQALSGISPALAPTLDLLQLDVANFATTIWQQMENLGVAPTVQPTQSAMPAFTSAFQRRAGGVLAISYLQGFLETARLALHHLAGSGSDRVYIHPFHLGSGSGGSGGSGGSGSGGSGSGGSGGSGLWPWPQYIQTYHRRYTLYPNNFQFRYHVSSAAQAGCVVLDEAFRRYRNLLFGSGSWPRPSFSNKQQTLGKNILVVSVVTAECNEFPNLESVENYTLTINDDQCLLASETVWGALRGLETFSQLVWKSAEGTFFINKTKIKDFPRFPHRGVLLDTSRHYLPLSSILDTLDVMAYNKFNVFHWHLVDDSSFPYESFTFPELTRKGSFNPVTHIYTAQDVKEVIEYARLRGIRVLAEFDTPGHTLSWGPGAPGLLTPCYSGSHLSGTFGPVNPSLNSTYDFMSTLFLEISSVFPDFYLHLGGDEVDFTCWKSNPNIQAFMKKKGFTDFKQLESFYIQTLLDIVSDYDKGYVVWQEVFDNKVKVRPDTIIQVWREEMPVEYMLEMQDITRAGFRALLSAPWYLNRVKYGPDWKDMYKVEPLAFHGTPEQKALVIGGEACMWGEYVDSTNLVPRLWPRAGAVAERLWSSNLTTNIDFAFKRLSHFRCELVRRGIQAQPISVGYCEQEFEQT
- Kd: 166 nM
